Source: IntAct's records for PubMed 19570982

B1: Fibulin-5 (Homo sapiens), Q9UBX5 (parent)
chain: MPGIKRILTVTILALCLPSPGNAQAQCTNGFDLDRQSGQCLDIDECRTIPEACRGDMMCVNQNGGYLCIPRTNPVYRGPYSNPYSTPYSGPYPAAAPPLSAPNYPTISRPLICRFGYQMDESNQCVDVDECATDSHQCNPTQICINTEGGYTCSCTDGYWLLEGQCLDIDECRYGYCQQLCANVPGSYSCTCNPGFTLNEDGRSCQDVNECATENPCVQTCVNTYGSFICRCDPGYELEEDGVHCSDMDECSFSEFLCQHECVNQPGTYFCSCPPGYILLDDNRSCQDINECEHRNHTCNLQQTCYNLQGGFKCIDPIRCEEPYLRISDNRCMCPAENPGCRDQPFTILYRDMDVVSGRSVPADIFQMQATTRYPGAYYIFQIKSGNEGREFYMRQTGPISATLVMTRPIKGPREIQLDLEMITVNTVINFRGSSVIRLRIYVSQYPF

Variants of: B1
Conditions: with eln_human ELN

| effect of a mutation on the interaction | Variant |
| --- | --- |
| decreasing interaction | C217R |
| decreasing interaction | S227P |
